Biological target: human transforming growth factor β2 (TGFβ2) (human) (UniProt P61812)
Assay: cell-based or functional assay

Sequence of human transforming growth factor β2 (TGFβ2) (human) (P61812 303-414 limits assumed): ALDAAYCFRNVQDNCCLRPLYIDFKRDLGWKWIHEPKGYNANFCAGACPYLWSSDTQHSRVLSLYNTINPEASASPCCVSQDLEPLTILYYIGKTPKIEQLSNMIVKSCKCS

Ki, reversal of TGFβ2-mediated inhibition of 3H-thymidine incorporation in mink lung epithelial cells: 0.5 nM
Substance: latency-associated protein (LAP)
